Measurements from article PMC9721465, “PFK2/FBPase-2 is a potential target for metabolic engineering in the filamentous fungus Myceliophthora thermophila” (Frontiers in Microbiology, 2022).

What was measured:
[1] = substrate: Nc1ncnc2c1ncn2[C@@H]1O[C@H](COP(=O)(O)OP(=O)(O)OP(=O)(O)O)[C@@H](O)[C@H]1O; test: PFK2 assay, fru-2,6-P2 quantified by activation of potato PPi-PFK, spectrophotometric; type: biochemical, Thermothelomyces thermophilus; settings: co-substrate F6P
Description: PFK2 assay, fru-2,6-P2 quantified by activation of potato PPi-PFK, spectrophotometric on PFK2-C

[2] = substrate: O=P(O)(O)OC[C@H]1O[C@@](CO)(OP(=O)(O)O)[C@@H](O)[C@@H]1O; test: FBPase-2 assay, product/substrate by LC-MS/MS; type: biochemical, Thermothelomyces thermophilus; settings: pH 7, 30 °C, 1 mM ATP, 2 mM MgCl2, 5 mM KPi
Description: FBPase-2 assay, product/substrate by LC-MS/MS on PFK2-A

B1: PFK2-C (Thermothelomyces thermophilus ATCC 42464) (protein)
chain: MPEPLQPSFFHVAASGSDPRPSESACQREDAAVAPQSSSLTLRKLAMSHRMGATASDPSSPTIQAIGDSHHGAETHPLHSVLPSPALTNALKESLRTAGAGQSGPPIGVPNGLHFDSPYSRSISSTAPGSPRIPPVRQNSGSHTPRIRPHATTLNIPGMTRSRASPDGRIPDRDVAAKLVIIMVGLPARGKSYITKKIQRYLSWQQHNTKIFNVGNRRRIAAGMVNPTDASPTNAANGHDVPSQAATILSKGTKGPDIVVEEPTALDLNKGKPVPKMDQSAAFFDPKNEAAAKLREQVALDTLDELLTYLLHQGGAVGILDATNSTIQRRKLLVERIKAREPKLGILFIESVCHDQNLLEANMRLKLFGPDYKDQDPHMALEDFKKRVAAYESAYEPLGKWEEDNDLQYIQMIDVGRKIIQHRLRGFLSGGIVSYLTTFNLSPRQIWITRHGQSEDNRAHRLGGDSELTERGHYYGQALYNFITYKRKEWLIQQKNKIASSNFPPQPGDNTPPYPELFQELDDKNFCVWTSMLKRSIETAEYFEADDDYDVKAWEMLNEMNAGAFEGMTYEEIAEKYPEEFEKRARDKLQYIYPGLGGEGYLQIISRLRDMVREIERITDHVLIIGHRSVCRVLMAYFMDLTRDDIADLDMPLGMLYAIEPKPYGIEFHAYKYNEETFWFDELPNYKPRKTVDRNS
notes: pET28a expression in E. coli (BL21/Rosetta DE3), His-Trap purified; cDNA-encoded
With B1 as the protein, how does the Km [1] read?
The Km was 940 ± 150 µM.

B2: PFK2-A (Thermothelomyces thermophilus ATCC 42464) (protein)
chain: MAPKINGTGVMPEDTRICVVMVGLPARGKSYIAQRAQRYLKWLSIPAKTFNVGNYRRKDAPHPSADFFDTNNAEGERQRRAAANAAVTDMIQWFKTGGVVGILDATNSTKERRKWVLERLSKEGIEVLFVESKCDDEELIMANIRDVKTTSPDYQGQDPEQAALDFRERIRHYEKVYKSINDDNDEDHLTYLKIMNVGKKVFINRIQDYLQSRVVYFLMNLHIRPRSVWLSRHGESEYNLEGRIGGDSLLSHRGEEYARKLPELVRQSVGSDRPLTVWTSTLKRTIATARHLPKHYNQLQWKALDELDAGVCDGLTYQEIADQYPEDFQARDEDKYNYRYRGGESYRDVVIRLEPIIMELERSENILIISHQAVIRCIYAYFMQKPQEESPWVPVPLHTLIKLTPRAYDTLVEKYDAKIKAVSTWRGKGSTAKHEDPTPEGGI
notes: pET32a expression in E. coli Rosetta (DE3), His-Trap purified; cDNA-encoded
B2 was tested. Which Km [2] did it give?
The Km was 3810 ± 220 µM.
